Experiments:
[1] = target: tau mutant M123 (triple mutant, M1+M2+M3) with GFP fused at the N-terminal (human) (UniProt P10636); test: immunocytochemistry, SHSY5Y cells 36 h after transfection
[2] = target: wild-type human tau 441 with GFP fused at the N-terminal (human) (UniProt P10636); test: as above
[3] = target: tau mutant M123 (triple mutant, M1+M2+M3) with GFP fused at the N-terminal (human) (UniProt P10636); test: immunocytochemistry, transfected SHSY5Y cells

Chain of tau mutant M123 (triple mutant, M1+M2+M3) with GFP fused at the N-terminal (human) (P10636 other isoform, or with tags, fused parts or gaps mutant): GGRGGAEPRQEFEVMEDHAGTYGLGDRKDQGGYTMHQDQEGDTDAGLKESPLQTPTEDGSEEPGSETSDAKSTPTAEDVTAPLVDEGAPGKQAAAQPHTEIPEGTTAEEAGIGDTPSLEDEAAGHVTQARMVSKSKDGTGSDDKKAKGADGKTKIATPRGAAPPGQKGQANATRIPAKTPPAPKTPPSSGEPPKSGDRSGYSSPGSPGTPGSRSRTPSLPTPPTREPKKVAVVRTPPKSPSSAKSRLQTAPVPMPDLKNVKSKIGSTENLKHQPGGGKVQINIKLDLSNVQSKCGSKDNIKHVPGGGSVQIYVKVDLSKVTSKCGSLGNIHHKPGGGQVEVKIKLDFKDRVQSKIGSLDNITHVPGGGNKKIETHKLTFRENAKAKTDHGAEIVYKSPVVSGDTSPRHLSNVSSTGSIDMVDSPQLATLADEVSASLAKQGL
Chain of wild-type human tau 441 with GFP fused at the N-terminal (human) (P10636 other isoform, or with tags, fused parts or gaps): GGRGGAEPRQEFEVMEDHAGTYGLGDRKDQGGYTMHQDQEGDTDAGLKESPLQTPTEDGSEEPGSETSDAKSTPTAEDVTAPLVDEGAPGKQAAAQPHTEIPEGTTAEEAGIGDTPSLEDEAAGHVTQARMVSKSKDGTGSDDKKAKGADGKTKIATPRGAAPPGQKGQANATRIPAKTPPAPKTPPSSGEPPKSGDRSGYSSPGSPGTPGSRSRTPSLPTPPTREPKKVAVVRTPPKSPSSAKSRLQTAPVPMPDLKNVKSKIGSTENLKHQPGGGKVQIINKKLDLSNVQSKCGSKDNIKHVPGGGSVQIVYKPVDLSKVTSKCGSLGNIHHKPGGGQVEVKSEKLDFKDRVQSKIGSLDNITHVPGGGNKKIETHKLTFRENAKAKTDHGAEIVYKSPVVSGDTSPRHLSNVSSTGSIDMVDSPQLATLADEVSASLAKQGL

Row | percentage of transfected cells with AT8 immunolabeling [1] [%] | percentage of transfected cells with AT8 immunolabeling [2] [%] | percentage of transfected cells AT180 immunopositive [3] [%] | Substance
1 | 83.2 | 9.17 | – | AT8 antibody (S202/T205 specific)
2 | – | – | 22.1 | AT180 antibody (phosphoepitope T231)

Source: US20110016537A1, “Cellular model of tauopathies for lead identification and drug discovery” (Georg-August-Universitat Gottingen Stifung offentl, priority 2003, published 2011)
